Experimental data as given in patent US8357523B2, “Beta-glucosidase variant enzymes and related polynucleotides” (Codexis, Inc., priority 2009, dated 2013).
Where a chain is given by its changes, count along the chain named.

B1: 160 (protein)
chain: STAIAQEGAAPAAILHPEKWPRPATQRLIDPAVEKRVDALLKQLSVEEKVGQVIQGDIGTITPEDLRKYPLGSILAGGNSGPNGDDRAPPKEWLDLADAFYRVSLEKRPGHTPIPVLFGIDAVHGHGNIGSATIFPHNIALGATRSPELLRRIGEVTAQEMAATGIDWTFAPALSVVRDDRWGRTYEGFSEDPEIVAAYSPAIVEGVQGKYGSKDFMAPGRAVACAKHFLADGGTDQGRDQGDARISEDELIRIHNAGYPPAIDAGVLTVMASFSSWQGIKHHGHKQLLTDVLKGQMGFNGFIVGDWNAHDQVPGCTKFNCPTSLIAGLDMYMAADSWKQLYENTLAQVKDGTIPMARLDDAVRRILRVKVLAGLFEKPAPKDRPGLPGLETLGSPEHRAVGREAVRKSLVLLKNDKGTLPLSPKARVLVAGDGADNIGKQSGGWTISWQGTGNRNDEFPGATSILGGIRDAVADAGGSVEFDVAGQYKTKPDVAIVVFGEEPYAEFQGDVETLEYQPDQKQDLALLKKLKDQGIPVVAVFLSGRPMWVNPELNASDAFVAAWLPGTEGGGVADVLFTDKAGKVQHDFAGKLSYSWPRTAAQTTVNRGDADYNPLFAYGYGLTYKDKSKVGTLPEESGVPAEARQNAGIYFRAGALRLPGRFL
B2: 183 (protein)
chain: B1 chain with N79D, Q159V, A162T, A198S, P201A, D311G, N320K, R358H, F662L
B3: 78 (protein)
chain: B1 chain with S146D, Q159V, P201A, Y211F, A222I
B4: 174 (protein)
chain: B1 chain with E34D, N79D, N128K, A143M, S146D, Q159E, A222I, C225S
B5: 171 (protein)
chain: B1 chain with N79D, S146D, Q159E, A198S, P201A, P219V, A222I, C225S
B6: 175 (protein)
chain: B1 chain with N79D, Q159V, A198S, P201A, A222I
B7: 167 (protein)
chain: B1 chain with N79D, N128K, S146D, Q159V, P201A, Y211F, A222I, C225S
B8: 79 (protein)
chain: B1 chain with N128K, S146D, Q159V, P201A, Y211F, A222I
B9: 173 (protein)
chain: B1 chain with I14M, N79D, N128K, S146D, Q159V, A162T, A222I, Q487R
B10: 181 (protein)
chain: B1 chain with N128K, A143M, S146D, Q159E, P201A, A222I
B11: 164 (protein)
chain: B1 chain with N79D, N128K, Q159V, P201A, Y211F, A222I
B12: 180 (protein)
chain: B1 chain with N79D, N128K, Q159V, P201A, Y211F, A222I, A655T
B13: 182 (protein)
chain: B1 chain with N79D, I114T, N128K, S146D, A173C, A198S, P201A, P219V, A222I, C225S
B14: 184 (protein)
chain: B1 chain with N79D, N128K, P219V, A222I, C225S, I280V
B15: 81 (protein)
chain: B1 chain with E18R, P23L, E34K, E47K, P70S, S146D, Q159V, P201A, Y211F, A222I
B16: 80 (protein)
chain: B1 chain with N128K, S146D, Q159V, A162T, P201A, Y211F, A222I
B17: 168 (protein)
chain: B1 chain with N128K, S146D, A222S
B18: 163 (protein)
chain: B1 chain with N79D, N128K, Q159V, A162T, A173C, A198S, P201A, A222I, C225S
B19: 179 (protein)
chain: B1 chain with N79D, N128K, S146D, Q159V, A173C, A198S, P201A, A222I, C225S
B20: 169 (protein)
chain: B1 chain with N79D, S146D, A162T, A222I
B21: 170 (protein)
chain: B1 chain with N128K, Q159E, A222I, A573V
B22: 165 (protein)
chain: B1 chain with A143M, S146D, Q159V, Y211F, A222I
B23: 178 (protein)
chain: B1 chain with S146D, Q159V, A198S, P201A, A373T
B24: 172 (protein)
chain: B1 chain with S146D, P201A, A222S, G534E
B25: 162 (protein)
chain: B1 chain with S146D, Q159V, A173C, P219V, A222I, C225S
B26: 166 (protein)
chain: B1 chain with N79D, S146D, G154V, Q159V, P201A, A222I
B27: 77 (protein)
chain: B1 chain with S146D, Q159V, Y211F, A222I

Assay: High throughput cellobiose assay: fold improvement in cellobiase activity of CelA variants over a control enzyme (Tables 2A-2D, 3, 5, 6, 7)
Format: biochemical
Conditions: 3.3 g/l cellobiose, 55° C. and pH 6.0

Row | Molecule | Fold improvement over Control Variant No. 5 from Table 2A
1 | B1 | +++ (+++ = 6 to 13 fold improvement over control Variant No. 2)
2 | B2 | ++ (++ = 1.1 to 6 fold improvement over control Variant No. 2)
3 | B3 | ++ (++ = 1.1 to 6 fold improvement over control Variant No. 2)
4 | B4 | ++ (++ = 1.1 to 6 fold improvement over control Variant No. 2)
5 | B5 | +++ (+++ = 6 to 13 fold improvement over control Variant No. 2)
6 | B6 | +++ (+++ = 6 to 13 fold improvement over control Variant No. 2)
7 | B7 | ++ (++ = 1.1 to 6 fold improvement over control Variant No. 2)
8 | B8 | ++ (++ = 1.1 to 6 fold improvement over control Variant No. 2)
9 | B9 | +++ (+++ = 6 to 13 fold improvement over control Variant No. 2)
10 | B10 | +++ (+++ = 6 to 13 fold improvement over control Variant No. 2)
11 | B11 | +++ (+++ = 6 to 13 fold improvement over control Variant No. 2)
12 | B12 | +++ (+++ = 6 to 13 fold improvement over control Variant No. 2)
13 | B13 | ++ (++ = 1.1 to 6 fold improvement over control Variant No. 2)
14 | B14 | +++ (+++ = 6 to 13 fold improvement over control Variant No. 2)
15 | B15 | ++ (++ = 1.1 to 6 fold improvement over control Variant No. 2)
16 | B16 | +++ (+++ = 6 to 13 fold improvement over control Variant No. 2)
17 | B17 | +++ (+++ = 6 to 13 fold improvement over control Variant No. 2)
18 | B18 | +++ (+++ = 6 to 13 fold improvement over control Variant No. 2)
19 | B19 | +++ (+++ = 6 to 13 fold improvement over control Variant No. 2)
20 | B20 | +++ (+++ = 6 to 13 fold improvement over control Variant No. 2)
21 | B21 | ++ (++ = 1.1 to 6 fold improvement over control Variant No. 2)
22 | B22 | +++ (+++ = 6 to 13 fold improvement over control Variant No. 2)
23 | B23 | +++ (+++ = 6 to 13 fold improvement over control Variant No. 2)
24 | B24 | +++ (+++ = 6 to 13 fold improvement over control Variant No. 2)
25 | B25 | +++ (+++ = 6 to 13 fold improvement over control Variant No. 2)
26 | B26 | +++ (+++ = 6 to 13 fold improvement over control Variant No. 2)
27 | B27 | ++ (++ = 1.1 to 6 fold improvement over control Variant No. 2)
